Measured values from patent US20130323249A1 (published 2013).

Target: human PD-L1 expressed on the surface of cells (human, UniProt Q9NZQ7 19-290)
Test: FACS binding to human lymphocytes

Chain of human PD-L1 expressed on the surface of cells (Q9NZQ7 19-290): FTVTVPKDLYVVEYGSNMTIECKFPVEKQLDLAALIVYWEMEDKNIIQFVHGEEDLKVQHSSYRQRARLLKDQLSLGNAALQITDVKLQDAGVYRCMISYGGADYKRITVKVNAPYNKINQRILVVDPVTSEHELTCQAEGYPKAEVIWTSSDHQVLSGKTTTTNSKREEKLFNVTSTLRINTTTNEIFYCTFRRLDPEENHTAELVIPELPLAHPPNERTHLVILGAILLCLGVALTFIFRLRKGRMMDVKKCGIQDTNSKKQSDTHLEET

EC50 [µg/mL] | Binder
0.03 | H6 anti-PD-L1 antibody (antibody, V domains shown) VH: QMQLVQSGAEVKKPGSSVKVSCKASGGTFSSYAISWVRQAPGQGLEWMGGIIPIFGTANYAQKFQGRVTITADESTSTAYMELSSLRSEDTAVYYCARGNIVATITPLDYWGQGTLVTVSS VL: SYELMQPPSVSVAPGKTATIACGGENIGRKTVHWYQQKPGQAPVLVIYYDSDRPSGIPERFSGSNSGNTATLTISRVEAGDEADYYCQVWDSSSDHRIFGGGTKLTVL
0.021 | H10 anti-PD-L1 antibody (antibody, V domains shown) VH: EVQLVQSGGGLVQPGGSLRLSCAASGFTFSSYSMNWVRQAPGKGLEWVSYISSSSSTIYYADSVKGRFTISRDNAKNSLYLQMNSLRDEDTAVYYCARGDYYYGMDVWGQGTTVTVSS VL: EIVLTQSPSSLSASIGDRVTLTCRASQSIRRFLNWYQQKPGKAPELLIYTASSLQSGVPSRFSGSGSGTDFTLTINSLQPEDFATYYCQQSYAVSPYTFGQGTKVEIR
